Results: US20240383970A1 (BEIJING IMMUNOCHINA PHARMACEUTICALS, published 2024)
Substitutions are numbered along the chain they refer to.

B1: 8A882 antibody (antibody, mouse IgG1, kappa, V domains shown)
VH: EVQLQQSGPELVKPGASVKMSCKASGYTFTDYYMKWVKQSHGKSLEWIGDINPNNGDTFYNQKFKGKATLTVDKSSSSAYMQLNSLTSEDSAVYYCARYYGNSSPWFAYWGQGTLVTVSA
VL: DIVLTQSPASLAVSLGQRATISCKASQSVDYDGDSYMNWYQQKPGQPPKLLIYAASNLQSGIPARFSGSGSGTDFTLNIHPVEEEDTATYYCQQITEDPWTFGGRTKLEIKR
notes: Mouse monoclonal antibody from a hybridoma, purified from ascites on a Protein A/G column
B2: 8F8D1 antibody (antibody, V domains shown)
VH: B1 VH with S44R, S78T, N102R, A108P
VL: B1 VL with A12G, Y31N, D32S, Q59E, T87A, T96N
notes: Mouse monoclonal antibody from a hybridoma, purified from ascites on a Protein A/G column; also called PE-labeled 8F8D1 antibody

Biological target: T1, CAR targeting CD19 containing a Strep-Tag II tag, on CAR-T cells (UniProt P01732 138-206; Q07011 214-255; P20963 52-163)
T1 construct: domain: CD8α hinge region, CD8α transmembrane region;domain: intracellular region of 4-IBB;domain: intracellular region of CD3ζ; Expressed on human T cells after lentiviral transduction; also called CAR-T cells containing a Strep-Tag II tag; Strep-Tag II short peptide
T1 sequence (P20963 other isoform, or with tags, fused parts or gaps): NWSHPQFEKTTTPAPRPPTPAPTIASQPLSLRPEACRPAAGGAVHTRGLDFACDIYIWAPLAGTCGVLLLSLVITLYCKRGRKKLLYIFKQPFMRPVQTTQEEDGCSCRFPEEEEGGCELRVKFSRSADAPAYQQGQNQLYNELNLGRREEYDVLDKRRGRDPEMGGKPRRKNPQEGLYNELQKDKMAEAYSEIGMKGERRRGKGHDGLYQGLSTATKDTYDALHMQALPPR
Assay: flow cytometry titration (10 concentrations) on CAR-T cells with Strep-Tag II tag; filing equates EC50 with KD (saturated concentration method)
Excerpt: The antibody affinity detection of the present invention adopts the dynamic equilibrium assay method (saturated concentration method). In the presence of a small amount of antigen, the antibody is subjected to gradient dilution to detect the concentration of the antigen-antibody complex. When the concentration of the antigen-antibody complex accounts for half of the total antigen concentration, the corresponding concentration value (EC50) of the antibody is the KD value of the antibody relative to the antigen.
CAR-T cells containing a Strep-Tag II tag were collected, washed with DPBS and counted. The cells were dispensed into several EP tubes at approximately 3×10⁵ cells per tube. After centrifugation to remove the supernatant, 8A882 antibody or 8F8D1 antibody and a positive control antibody (commercial Strep-Tag II antibody, Abcam; Cat #: ab184224) diluted in serial gradient for 10 concentrations were added and incubated at room temperature for 15 minutes. After washing the cells twice with DPBS, PE-labeled rat anti-mouse IgG was added, and incubated at room temperature for 15 minutes. After washing the cells twice, FACS analysis and GraphPad Prism software were used to calculate the EC50 value. […] Compared with the positive control antibody, the two strain antibodies of the present invention have high affinity.

Row | Binder | EC50
1 | B1 | 0.4 nM
2 | B2 | 0.2 nM
